Laboratory results reported in patent publication US20250171556A1 (VIRTUOSO BINCO, published 2025).
Where two headings read alike, the source gives them in different places.

Experiments:
recombinant human EpCAM [1] = target: T1, recombinant human EpCAM (human, UniProt P16422 24-265); experiment: ELISA, plate coated with recombinant human EpCAM, detection with peroxidase anti-human IgG (Fab specific), OD450
T1 construct: Recombinant protein for ELISA coating; also called human EpCAM recombinant protein
T1 sequence (looked up): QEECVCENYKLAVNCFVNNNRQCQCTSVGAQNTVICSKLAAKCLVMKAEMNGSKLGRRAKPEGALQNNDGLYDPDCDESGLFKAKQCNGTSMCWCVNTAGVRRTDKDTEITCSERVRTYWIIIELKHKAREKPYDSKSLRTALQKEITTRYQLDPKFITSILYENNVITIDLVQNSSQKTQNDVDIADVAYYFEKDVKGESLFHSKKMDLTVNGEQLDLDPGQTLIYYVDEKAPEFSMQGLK
Procedure: (§1) A 96-well plate was coated overnight at 4° C. with 1 μg/ml recombinant human CD47 or human EpCAM. After washing 3 times, the plate was blocked with 300 μl 1% BSA in PBST at 37° C. for 1 hour. Serially diluted antibodies were added and incubated at 37° C. for 1 hour. The plate was then washed 4 times with PBST and incubated with 1:5000 diluted peroxidase labeled goat anti-human IgG (Fab specific) secondary antibody (Sigma, Cat #A0293) for 1 hour at 37° C. The plate was washed again 4 times with PBST, incubated with 3,3′,5,5′-tetramethylbenzidine (TMB) substrate for 15 min at room temperature, terminated with 1N HCl, and then read at 450 nm.
(§2) ELISA assay was performed as described in EXAMPLE 3.

recombinant human CD47 [2] = target: T2, recombinant human CD47 (human, UniProt Q08722 19-139, limits assumed); experiment: ELISA, plate coated with recombinant human CD47, detection with peroxidase anti-human IgG (Fab specific), OD450
T2 construct: Recombinant protein for ELISA coating; also called human CD47 recombinant protein
Procedure: as §1, §2

CD47 on human cells [3] = target: T3, CD47 on human cells (human, UniProt Q08722 19-323); experiment: flow cytometry, blocking of SIRPα-mIgG2a fusion protein (0.2 µg/mL) binding to CD47 on Raji cells (EpCAM-/CD47+), inhibition (%)
T3 construct: whole, on cells; Endogenous CD47 on cells; also called CD47 on Raji cells; CD47 on HCT-15 cells
Procedure: (§3) Tumor cells were harvested, centrifuged, and then resuspended in FACS buffer (PBS plus 2% FBS) at a concentration of 2×10⁶ cells/mL. 100 μL of the cell suspension was dispensed into each well of a 96-well plate. The plate was centrifuged for 5 min and 300×g, and the supernatants were discarded. […] Then, the plates were washed twice with FACS buffer and incubated for 1 hour at 4° C. in the dark with 100 μL of Alexa Fluor 488 donkey anti-Mouse IgG (H+L) secondary antibody (Invitrogen, Cat #A21202, 1:1000). After washing twice with FACS buffer, the plates were resuspended with 300 μL FACS buffer and analyzed by flow cytometry.

recombinant human CD47 [4] = target: T2, recombinant human CD47; experiment: ELISA, plate coated with recombinant human CD47, detection with peroxidase anti-human IgG (Fab specific), OD450; remark: listed apart in the source
Procedure: as §1, with “μg/mL” for “μg/ml”, “EGFR.” for “EpCAM.”, “μL” for “μl”

CD47 on human cells [5] = target: T3, CD47 on human cells; experiment: flow cytometry competition with SIRPα-mIgG2a (1 µg/mL) on EpCAM-high HCT-15 cells; EpCAM high HCT-15 cells; SIRPα-mIgG2a 1 µg/mL
Procedure: as §3

CD47 on human cells [6] = target: T3, CD47 on human cells; experiment: flow cytometry, blocking of SIRPα-mIgG2a fusion protein (1 µg/mL) binding to CD47 on HCT-15 cells (EpCAM+++/CD47+), inhibition (%)
Procedure: as §3

CD47 on human cells [7] = target: T3, CD47 on human cells; experiment: flow cytometry on a mixture of HCT-15 cells and RBCs; EC50 on HCT-15 cells against EC50 on RBCs
Procedure: (§4) Binding of antibodies on mixed tumor cells and RBCs was performed by FACS. In brief, antibodies were incubated with a mixture of HCT-15 tumor cells and RBCs (in 20-fold excess of tumor) for 1 h at 4° C. The binding of antibodies on HCT-15 cells and RBCs were identified by using different FACS markers and detected by flow cytometry.

CD47 on human cells [8] = target: T3, CD47 on human cells; experiment: flow cytometry competition with SIRPα-mIgG2a (0.2 µg/mL) on EpCAM-negative Raji cells; EpCAM negative Raji cells; SIRPα-mIgG2a 0.2 µg/mL
Procedure: as §3

CD47 on human cells [9] = target: T3, CD47 on human cells; experiment: flow cytometry competition with SIRPα-mIgG2a; IC50 on HCT-15 cells against IC50 on Raji cells
Procedure: as §3

CD47 on human cells [10] = target: T3, CD47 on human cells; experiment: flow cytometry on a mixture of HCT-15 tumor cells and a 20-fold excess of RBCs, signal on the HCT-15 cells (EpCAM+/CD47+, so both arms of the bispecific can take part), % of selective binding
Procedure: as §4

recombinant human CD47 [11] = target: T2, recombinant human CD47; experiment: ELISA, plate coated with recombinant human CD47, detection with peroxidase anti-human IgG (Fab specific), OD450; remark: listed apart in the source
Procedure: as §1

recombinant human EpCAM [12] = target: T1, recombinant human EpCAM; experiment: ELISA, plate coated with recombinant human EpCAM, detection with peroxidase anti-human IgG (Fab specific), OD450; remark: listed apart in the source
Procedure: as §1

B1: CD47×EpCAM_v9 (bispecific antibody, human IgG1, kappa)
heavy: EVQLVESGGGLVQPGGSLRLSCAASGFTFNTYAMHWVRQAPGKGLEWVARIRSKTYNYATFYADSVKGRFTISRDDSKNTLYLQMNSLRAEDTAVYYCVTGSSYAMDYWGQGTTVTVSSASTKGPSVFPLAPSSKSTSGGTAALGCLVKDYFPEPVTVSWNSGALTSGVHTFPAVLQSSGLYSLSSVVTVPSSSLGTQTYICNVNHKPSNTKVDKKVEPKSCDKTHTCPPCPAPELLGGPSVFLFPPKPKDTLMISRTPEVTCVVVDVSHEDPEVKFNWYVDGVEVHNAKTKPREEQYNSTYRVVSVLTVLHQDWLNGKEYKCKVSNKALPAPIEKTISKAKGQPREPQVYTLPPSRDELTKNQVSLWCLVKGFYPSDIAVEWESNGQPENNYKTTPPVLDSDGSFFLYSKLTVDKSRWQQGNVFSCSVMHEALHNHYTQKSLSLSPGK
light: DIQLTQSPSSLSASVGDRVTFTCRASQSIGTSLHWYQQKPGKAPKLLIKYASESISGIPSRFSGSGSGTDFTLTISSVQPEDFATYYCQQSNSWPYTFGQGTKLEIKRTVAAPSVFIFPPSDEQLKSGTASVVCLLNNFYPREAKVQWKVDNALQSGNSQESVTEQDSKDSTYSLSSTLTLSKADYEKHKVYACEVTHQGLSSPVTKSFNRGEC
scFv: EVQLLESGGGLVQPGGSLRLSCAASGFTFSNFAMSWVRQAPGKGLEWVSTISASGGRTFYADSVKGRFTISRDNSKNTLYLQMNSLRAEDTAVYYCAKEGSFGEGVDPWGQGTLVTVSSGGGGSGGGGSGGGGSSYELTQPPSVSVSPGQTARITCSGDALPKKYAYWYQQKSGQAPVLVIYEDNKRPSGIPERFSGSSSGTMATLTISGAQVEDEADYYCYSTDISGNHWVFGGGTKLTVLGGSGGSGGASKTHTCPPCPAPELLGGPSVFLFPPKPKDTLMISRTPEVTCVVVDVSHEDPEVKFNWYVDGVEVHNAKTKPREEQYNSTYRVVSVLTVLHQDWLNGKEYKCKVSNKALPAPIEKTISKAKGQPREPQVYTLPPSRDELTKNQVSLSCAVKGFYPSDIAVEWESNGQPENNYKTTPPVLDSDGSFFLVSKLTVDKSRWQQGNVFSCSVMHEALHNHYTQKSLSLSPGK
notes: Three-chain knob-into-hole bispecific: anti-EpCAM Fab arm and anti-CD47 scFv arm
With B1 as the binder, how does the “EC50 (read off the curve)” value (recombinant human EpCAM [1]) read?
Its value is about 0.1 nM.

What about the “EC50 (read off the curve)” value (recombinant human CD47 [2]) of the same binder?
Its value is about 7 nM.

B2: VIR47.V8 (antibody, human IgG1, lambda, V domains shown)
VH: EVQLLESGGGLVQPGGSLRLSCAASGFTFSNFAMSWVRQAPGKGLEWVSTISASGGRTFYADSVKGRFTISRDNSKNTLYLQMNSLRAEDTAVYYCAKEGSFGEGVDPWGQGTLVTVSS
VL: SYELTQPPSVSVSPGQTARITCSGDALPKKYAYWYQQKSGQAPVLVIYEDNKRPSGIPERFSGSSSGTMATLTISGAQVEDEADYYCYSTDISGNHWVFGGGTKLTVLG
notes: Bivalent monospecific parental anti-CD47 antibody; also called parental CD47 antibody VIR47.V8; anti-CD47 bivalent antibody (VIR47.V8)
What does the source list for B2?
IC50 (read off the curve) (CD47 on human cells [3]): ~8 nM; EC50 (read off the curve) (recombinant human CD47 [4]): ~0.05 nM

B3: CD47×EpCAM_v5 (bispecific antibody, human IgG1, lambda)
heavy: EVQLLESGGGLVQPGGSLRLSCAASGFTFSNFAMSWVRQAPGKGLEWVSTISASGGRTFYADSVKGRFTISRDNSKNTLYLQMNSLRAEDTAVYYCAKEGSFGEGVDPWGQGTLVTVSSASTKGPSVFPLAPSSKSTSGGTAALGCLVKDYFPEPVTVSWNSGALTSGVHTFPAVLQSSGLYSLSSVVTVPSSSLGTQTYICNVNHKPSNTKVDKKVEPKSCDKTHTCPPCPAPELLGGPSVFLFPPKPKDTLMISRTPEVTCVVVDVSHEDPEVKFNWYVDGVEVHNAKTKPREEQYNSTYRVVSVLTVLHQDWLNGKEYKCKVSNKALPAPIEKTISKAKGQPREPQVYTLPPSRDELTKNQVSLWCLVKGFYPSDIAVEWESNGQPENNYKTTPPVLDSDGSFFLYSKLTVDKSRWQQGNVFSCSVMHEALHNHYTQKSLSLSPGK
light: SYELTQPPSVSVSPGQTARITCSGDALPKKYAYWYQQKSGQAPVLVIYEDNKRPSGIPERFSGSSSGTMATLTISGAQVEDEADYYCYSTDISGNHWVFGGGTKLTVLGQPKAAPSVTLFPPSSEELQANKATLVCLISDFYPGAVTVAWKADSSPVKAGVETTTPSKQSNNKYAASSYLSLTPEQWKSHRSYSCQVTHEGSTVEKTVAPTECS
scFv: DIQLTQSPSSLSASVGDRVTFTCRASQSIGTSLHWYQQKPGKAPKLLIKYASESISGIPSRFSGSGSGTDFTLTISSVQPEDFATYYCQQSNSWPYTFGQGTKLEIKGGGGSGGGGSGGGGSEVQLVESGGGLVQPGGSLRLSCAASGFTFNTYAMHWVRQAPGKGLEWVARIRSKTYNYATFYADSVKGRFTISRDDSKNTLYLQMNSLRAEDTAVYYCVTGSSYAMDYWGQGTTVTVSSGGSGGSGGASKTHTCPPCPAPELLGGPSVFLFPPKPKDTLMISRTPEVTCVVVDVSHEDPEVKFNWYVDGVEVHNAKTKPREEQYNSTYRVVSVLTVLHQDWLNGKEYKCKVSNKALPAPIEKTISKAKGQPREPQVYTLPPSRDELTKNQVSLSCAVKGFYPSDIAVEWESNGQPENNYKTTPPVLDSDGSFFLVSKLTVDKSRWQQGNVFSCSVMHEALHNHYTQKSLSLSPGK
notes: Three-chain knob-into-hole bispecific: anti-CD47 Fab arm (VIR47.V8) and anti-EpCAM scFv arm (Mab002-11), human IgG1 backbone; also called anti-CD47×EpCAM bispecific antibody
Which results are given for B3?
IC50 (CD47 on human cells [5]): < 1 nM; IC50 (read off the curve) (CD47 on human cells [6]): ~0.3 nM; fold difference of binding EC50 (tumor cells against RBCs) (CD47 on human cells [7]): > 200 fold; IC50 (CD47 on human cells [8]): > 100 nM; fold difference of IC50 (HCT-15 cells against Raji cells) (CD47 on human cells [9]): ~500 fold; EC50 (read off the curve) (CD47 on human cells [10]): ~0.09 nM; EC50 (read off the curve) (recombinant human CD47 [11]): ~1 nM; EC50 (read off the curve) (recombinant human EpCAM [12]): ~0.8 nM

B4: CD47×EpCAM_v10 (bispecific antibody, human IgG1, lambda)
heavy: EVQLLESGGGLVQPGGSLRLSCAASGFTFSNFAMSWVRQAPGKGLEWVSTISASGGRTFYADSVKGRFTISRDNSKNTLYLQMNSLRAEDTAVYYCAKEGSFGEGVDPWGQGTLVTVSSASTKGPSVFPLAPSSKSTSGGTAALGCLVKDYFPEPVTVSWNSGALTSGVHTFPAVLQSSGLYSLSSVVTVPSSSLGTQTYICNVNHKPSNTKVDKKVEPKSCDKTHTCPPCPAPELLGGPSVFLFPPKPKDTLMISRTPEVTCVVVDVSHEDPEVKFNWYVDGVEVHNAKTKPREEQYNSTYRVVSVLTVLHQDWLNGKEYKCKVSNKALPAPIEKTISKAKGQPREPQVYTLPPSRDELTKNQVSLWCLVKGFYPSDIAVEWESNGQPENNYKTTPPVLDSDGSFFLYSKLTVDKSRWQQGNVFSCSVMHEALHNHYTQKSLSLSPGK
light: SYELTQPPSVSVSPGQTARITCSGDALPKKYAYWYQQKSGQAPVLVIYEDNKRPSGIPERFSGSSSGTMATLTISGAQVEDEADYYCYSTDISGNHWVFGGGTKLTVLGQPKAAPSVTLFPPSSEELQANKATLVCLISDFYPGAVTVAWKADSSPVKAGVETTTPSKQSNNKYAASSYLSLTPEQWKSHRSYSCQVTHEGSTVEKTVAPTECS
scFv: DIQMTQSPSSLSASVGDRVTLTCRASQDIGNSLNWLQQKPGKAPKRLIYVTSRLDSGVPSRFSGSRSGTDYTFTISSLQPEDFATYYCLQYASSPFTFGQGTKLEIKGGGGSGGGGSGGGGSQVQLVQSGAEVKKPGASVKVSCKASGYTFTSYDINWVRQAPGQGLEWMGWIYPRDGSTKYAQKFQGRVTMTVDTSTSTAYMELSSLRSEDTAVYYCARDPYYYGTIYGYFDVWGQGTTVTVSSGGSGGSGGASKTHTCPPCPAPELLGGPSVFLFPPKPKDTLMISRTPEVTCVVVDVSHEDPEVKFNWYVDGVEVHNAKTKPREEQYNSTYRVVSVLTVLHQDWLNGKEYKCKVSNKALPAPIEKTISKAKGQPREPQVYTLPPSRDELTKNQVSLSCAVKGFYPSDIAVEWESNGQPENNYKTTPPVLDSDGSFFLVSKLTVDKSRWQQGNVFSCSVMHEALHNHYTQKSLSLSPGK
notes: Three-chain knob-into-hole bispecific: anti-CD47 Fab arm and anti-EpCAM scFv arm (Mab001-12)
How did the “EC50 (read off the curve)” value (recombinant human EpCAM [1]) turn out when B4 was run?
The value was about 9 nM.

And the “EC50 (read off the curve)” value (recombinant human CD47 [2])?
Its value is about 1 nM.

B5: CD47×EpCAM_v11 (bispecific antibody, human IgG1, lambda)
heavy: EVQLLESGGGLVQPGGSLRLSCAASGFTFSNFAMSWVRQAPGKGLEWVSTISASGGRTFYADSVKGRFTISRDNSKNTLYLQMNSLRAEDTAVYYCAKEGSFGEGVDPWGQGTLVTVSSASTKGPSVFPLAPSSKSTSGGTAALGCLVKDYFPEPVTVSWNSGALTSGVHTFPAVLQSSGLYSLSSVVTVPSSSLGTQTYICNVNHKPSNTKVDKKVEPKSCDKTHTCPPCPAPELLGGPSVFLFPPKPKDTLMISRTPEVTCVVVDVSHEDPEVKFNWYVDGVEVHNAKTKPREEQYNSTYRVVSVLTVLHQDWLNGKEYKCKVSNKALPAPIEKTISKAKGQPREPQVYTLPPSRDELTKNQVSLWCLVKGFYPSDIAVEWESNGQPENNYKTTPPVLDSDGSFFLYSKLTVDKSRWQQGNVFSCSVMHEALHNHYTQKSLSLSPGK
light: SYELTQPPSVSVSPGQTARITCSGDALPKKYAYWYQQKSGQAPVLVIYEDNKRPSGIPERFSGSSSGTMATLTISGAQVEDEADYYCYSTDISGNHWVFGGGTKLTVLGQPKAAPSVTLFPPSSEELQANKATLVCLISDFYPGAVTVAWKADSSPVKAGVETTTPSKQSNNKYAASSYLSLTPEQWKSHRSYSCQVTHEGSTVEKTVAPTECS
scFv: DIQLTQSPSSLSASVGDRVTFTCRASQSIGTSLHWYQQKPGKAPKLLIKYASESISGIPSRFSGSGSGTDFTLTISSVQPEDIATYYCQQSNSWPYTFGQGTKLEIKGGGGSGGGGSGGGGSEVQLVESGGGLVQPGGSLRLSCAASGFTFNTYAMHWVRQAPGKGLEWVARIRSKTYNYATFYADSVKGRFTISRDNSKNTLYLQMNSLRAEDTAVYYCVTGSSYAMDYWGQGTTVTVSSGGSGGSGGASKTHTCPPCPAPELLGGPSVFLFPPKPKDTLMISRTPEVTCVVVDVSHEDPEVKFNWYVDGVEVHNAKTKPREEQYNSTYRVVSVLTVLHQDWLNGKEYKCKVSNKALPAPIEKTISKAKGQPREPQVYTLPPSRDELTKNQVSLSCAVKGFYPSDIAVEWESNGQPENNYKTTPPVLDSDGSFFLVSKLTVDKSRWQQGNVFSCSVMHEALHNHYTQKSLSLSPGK
notes: Three-chain knob-into-hole bispecific: anti-CD47 Fab arm and anti-EpCAM scFv arm (Mab002-8)
What does the source list for B5?
EC50 (read off the curve) (recombinant human EpCAM [1]): ~0.1 nM; EC50 (read off the curve) (recombinant human CD47 [2]): ~0.4 nM
